Experimental data as given in article PMC11434109, “VIK‐Mediated Auxin Signaling Regulates Lateral Root Development in Arabidopsis” (Advanced Science, 2024).

Biological target: T1, His-VIK (Arabidopsis, UniProt Q9XI87 1-438)
T1 construct: VIK, Arabidopsis, AT1G14000, N-terminal 6 x histidine tag and a full-length VIK protein; also called recombinant His-VIK; source: E. coli BL21 (DE3), purified (Ni NTA beads); not shown: His6, N-terminal, kept
T1 sequence (looked up): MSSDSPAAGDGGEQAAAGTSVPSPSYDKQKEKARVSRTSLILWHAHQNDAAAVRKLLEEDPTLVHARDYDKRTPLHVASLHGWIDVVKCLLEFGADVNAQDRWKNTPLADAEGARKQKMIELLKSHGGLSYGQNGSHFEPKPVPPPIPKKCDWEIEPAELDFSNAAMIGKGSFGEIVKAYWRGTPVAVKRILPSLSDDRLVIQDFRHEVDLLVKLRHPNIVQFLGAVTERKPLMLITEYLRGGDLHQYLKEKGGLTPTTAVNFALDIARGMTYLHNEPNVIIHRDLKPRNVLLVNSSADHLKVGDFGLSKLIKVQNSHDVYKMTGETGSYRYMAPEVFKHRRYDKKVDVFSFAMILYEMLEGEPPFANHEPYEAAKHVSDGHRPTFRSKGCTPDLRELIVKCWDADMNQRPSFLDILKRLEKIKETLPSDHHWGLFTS
Experiment: pull-down; GST-LBD18 immobilised on Glutathione Beads, incubated with His-VIK or His-MBP at 4 °C for 4 h; washed five times with 1 x PBS; blot with anti-His and anti-GST
Conditions: both partners purified

B1: GST-LBD18 (natural protein, Arabidopsis, UniProt O22131 1-262, looked up)
chain: MSGGGNTITAVGGGGGGCGGGGSSGGGGSSGGGGGGPCGACKFLRRKCVPGCIFAPYFDSEQGSAYFAAVHKVFGASNVSKLLLHIPVHRRSDAVVTICYEAQARIRDPIYGCVAHIFALQQQVVNLQAEVSYLQAHLASLELPQPQTRPQPMPQPQPLFFTPPPPLAITDLPASVSPLPSTYDLASIFDQTTSSSAWATQQRRFIDPRHQYGVSSSSSSVAVGLGGENSHDLQALAHELLHRQGSPPPAATDHSPSRTMSR
notes: the words full length are not used for this construct; also called recombinant GST-LBD18; source: E. coli BL21 (DE3), purified (Glutathione Beads); not shown: GST, N-terminal, kept
**Q.** Does B1 bind?
**A.** Result: binds
